Data published in patent US20190194660A1 (UNIVERSITY OF SHEFFIELD, published 2019).

Biological target: T1, endogenous NXF1 in mouse neuronal N2A cells (mouse (endogenous in mouse neuronal N2A …, UniProt Q99JX7 2-618))
T1 construct: Detected with anti-NXF1 clone 53H8 after anti-FLAG immunoprecipitation; also called TAP/NXF1; nuclear export factor 1
T1 sequence (looked up): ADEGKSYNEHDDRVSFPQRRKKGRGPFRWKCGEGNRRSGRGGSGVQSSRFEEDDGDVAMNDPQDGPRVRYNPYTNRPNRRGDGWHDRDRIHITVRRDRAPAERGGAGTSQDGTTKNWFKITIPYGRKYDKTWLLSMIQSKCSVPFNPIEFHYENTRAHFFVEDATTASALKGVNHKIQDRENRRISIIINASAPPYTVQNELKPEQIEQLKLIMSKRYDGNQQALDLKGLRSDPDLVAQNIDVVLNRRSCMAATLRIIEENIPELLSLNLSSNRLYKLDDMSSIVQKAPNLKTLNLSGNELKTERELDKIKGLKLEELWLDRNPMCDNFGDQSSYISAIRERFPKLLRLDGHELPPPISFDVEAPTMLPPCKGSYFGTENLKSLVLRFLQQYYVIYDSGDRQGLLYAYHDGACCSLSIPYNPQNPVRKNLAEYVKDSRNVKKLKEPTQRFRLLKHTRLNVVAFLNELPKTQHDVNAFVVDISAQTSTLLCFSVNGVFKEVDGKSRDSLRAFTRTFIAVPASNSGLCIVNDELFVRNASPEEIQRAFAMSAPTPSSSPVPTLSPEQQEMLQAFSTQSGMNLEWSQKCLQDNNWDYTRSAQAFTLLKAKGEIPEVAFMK
Test: anti-FLAG co-immunoprecipitation of endogenous NXF1 from transfected N2A cells (FIG. 6)
Procedure: Co-immunoprecipitation of endogenous NXF1 is assessed using anti-NXF1 antibodies;

B1: FLAG-tagged SRSF1 11-196 quadruple mutant (SRSF1-m4) (other)
chain: AGNNDCRIYVGNLPPDIRTKDIEDVFYKYGAIRDIDLKNRRGGPPFAFVEFEDPRDAEDAVYGRDGYDYDGYRLRVEFPASGAGTGRGGGGGGGGGAPRGRYGPPSAASENRVVVSGLPPSGSWQDLKDHMREAGDVCYADVYRDGTGVVEFVRKEDMTYAVRKLDNTKFRSHEGETAYIRVKVDG
notes: also called p3xFLAG/SRSF1 (11-196)-m4; dominant negative mutant SRSF1-m4; not shown: FLAG tag from the p3xFLAG vector (Sigma)
B1: no binding.
